Measurements taken from the supplement of paper PMC12764529.
± gives the half width of the 95% confidence interval.

Experiments:
[1] = folding stability dG unfold (combined trypsin and chymotrypsin); higher = more stable
Procedure, shortened: (§1)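 Unfolding free energy was derived, per protease or combined, against a sequence-predicted unfolded-state K50 and a shared folded-state K50, starting from K50 inferred by Bayesian fitting of sequencing counts. Digestion with trypsin and chymotrypsin was carried out on designed mini-proteins under 80 residues without cysteine in a PA-tagged cDNA display construct. Only designs with AlphaFold2 dimer inter-PAE above 15 were kept.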

[2] = folding stability dG unfold from chymotrypsin proteolysis; higher = more stable
Procedure, shortened: as §1

[3] = folding stability dG unfold from trypsin proteolysis; higher = more stable
Procedure, shortened: as §1

Sequence	folding stability dG unfold [1] [kcal/mol]	folding stability dG unfold [2] [kcal/mol]	folding stability dG unfold [3] [kcal/mol]
SAGGSADPDSPYVIRFNKPYTTFSPDGTPIELTEDVLKRFKSEEEAKKAKEELEKKGAKVEPVEGSSAGGSA [r15_117_JUSTAS]	-0.159 ± 0.23	0.242 ± 0.31	-0.767 ± 0.41
SAGGSAGGSAGMKPDDTVTYTITVPHPESGEPLAEIELTYPVGTPIEKVKEEAKILAEKISAGGSAGGSAGG [r11_516_TrMRF]	0.429 ± 0.088	0.141 ± 0.27	0.515 ± 0.03
SAGGSAGGSAGMKTLKTTTKVFPGTGVIVTESLVEFPNGSLKKLTKVTYVKNPNPSTTLASAGGSAGGSAGG [r17_41_JUSTAS]	0.602 ± 0.19	0.545 ± 0.14	0.474 ± 0.093
SAGGSAETLTITLTVKPGETVTIKALFKAEDGSVYAVTATFTAEDEGTVTITVTRLPPGVKDLADLSAGGSA [r15_909_TrROS_Hall]	4.4 ± 0.16	4.71 ± 0.1	2.83 ± 0.099
SAGMKLELLLPAEEAVRLFGPDFDARDLARALASEGYVVESVEAEPFPNPEEGGLYLRVTFDVRPPDASAGG [r19_376_TrMRF]	1.38 ± 0.045	1.4 ± 0.061	1.37 ± 0.018
MEIIKKLKIPDYEIVSVKTKKIGNKVIVVVVLKKEKEYYVIVAEINPETKEIKIISIKKLKENETLEDFISS [r1_383_TrMRF]	3.76 ± 0.32	3.95 ± 0.11	3.2 ± 0.26
SAGGSAGGSAGGKEYKLVKVKVKVEITLPKGSELLKKLGLSEEDVKFEFELEVVVLVKPSAGGSAGGSAGGS [r10_82_TrROS_Hall]	3.68 ± 0.23	3.93 ± 0.074	2.82 ± 0.21
SAGGSAGGGKPKVEIEYNGKTYEFDSLEELVAEAKEPVRIRLPNGEEIELSREDLKNLTVRLVPSAGGSAGG [r6_684_TrROS_Hall]	1.99 ± 0.043	2.29 ± 0.056	1.55 ± 0.018
SAGKVIVIDAEEMTEEELKEILKKTKPGEKILIIAKSKEVAEKLKELGFEVEEVEKVPLTEEELKKLKKSAG [r5_354_TrROS_Hall]	1.08 ± 0.14	1.27 ± 0.028	0.835 ± 0.063
SAGGSAGGSAGNIILPFEIESIDIEEETAIDPETGEPVKVKKILIRLKGTGKIIEISFTEKSAGGSAGGSAG [r3_424_TrMRF]	2.88 ± 0.26	3.01 ± 0.11	2.76 ± 0.23
SAGGGLEEFARRLAEELARLLGGPNVPFELEGVVVFGFRLRPDGTPEPTTSRPVVVRVRFETPGGDPSAGGS [r16_156_TrMRF]	3.58 ± 0.1	4.09 ± 0.044	2.7 ± 0.11
SAGGKMKTVKVTITDKDGRKIEIVDVTVKDNKVYVVVKDKKTKKTIVLEFDTKEEAEEAIKKLLEAKSAGGS [r16_736_TrROS_Hall]	2.18 ± 0.34	2.52 ± 0.066	0.976 ± 0.071
SAGMKVILIIAPEEKIEEIFEEIKKIAEEHGLDLKLDKIEPLPEKGYLVIVTVKNPESDETTVILVLVPSAG [r5_41_TrMRF]	3.55 ± 0.12	3.75 ± 0.077	2.96 ± 0.096
SAAAAVAAAVAATLEALLPPGYRITAVTAEVAPDGTVTIPVTVEGPDGVPTLVVVTVDLATGEITVTVFGSA [r9_219_TrMRF]	4.22 ± 0.22	4.63 ± 0.21	3.17 ± 0.16
SAGGSAGGAERIKNLLEDYGFELKDVEMDEPGSTKIHITPDNPSLRKDIKDKLPPGNVDSITDTSAGGSAGG [r6_84_TrROS]	0.882 ± 0.26	1.33 ± 0.12	-0.0811 ± 0.14
SAGGSAGGSAGEGLKVTVTVSGELDPEKGGLSLRVEIRVEPVLIPPPVLPPAADNLSNLLSAGGSAGGSAGG [r17_454_TrMRF]	1.55 ± 0.09	0.912 ± 0.079	1.94 ± 0.072

Sequence	folding stability dG unfold [1] [kcal/mol]	folding stability dG unfold [2] [kcal/mol]	folding stability dG unfold [3] [kcal/mol]
SAGGSAGGSAGGNITVTEDGWIVIEIPYYSPDGGPSPITIVIPIPKMPPEEAEELADKGSAGGSAGGSAGGS [r10_1096_TrROS]	1.11 ± 0.14	1.04 ± 0.14	1.13 ± 0.14
SAGGSAGGSKPVLVKVERKEVEVPLPDGTPGKVFVVKVTVLGENEPLAEKTYLFASEEEAKESSAGGSAGGS [r12_461_TrMRF]	0.595 ± 0.13	0.761 ± 0.17	0.102 ± 0.076
SAGGSAGGSAEELVKYLAKEHGHPPGKEVTIPFDNWMIKIRYNNDGVPVGVEIKPMPPDDMSAGGSAGGSAG [r3_468_TrROS]	0.593 ± 0.098	0.288 ± 0.12	0.717 ± 0.025
SAGGSAMTVEELKELFPGYPITEITDFQPVDGWYTLSIKYPNNGKKRQINVEGMPPELAKEIMELISAGGSA [r15_830_TrROS]	0.0457 ± 0.098	-0.394 ± 0.21	0.161 ± 0.036
SAGGSPPDKWVTLPFTMRYPDNGLEVEVNIVINPDDGKIQVEMEVYDNGKPKQEVPATIPADEIKLSAGGSA [r2_188_TrROS]	0.699 ± 0.13	0.594 ± 0.23	0.639 ± 0.035
SAGGKPVRIRSSNGWPIEINPEDGTIKVEFPGYEVEFEVKEDGTIQFQIRNPKDGKPIMPMTLQIEKSAGGS [r16_760_TrROS]	0.98 ± 0.072	1.07 ± 0.093	0.694 ± 0.049
SMVRITVYRNGKELSEEELRELAAELERETGRRITVEELARRLAARPGLTVRIEVFNEDGELVEERELRVSA [r9_1045_TrROS_Hall]	4.71 ± 0.076	5.14 ± 0.11	3.42 ± 0.058
SAGGSAGGSAGIKIPPGQKLSIEENPDGNMEIKFPDPGQKFTIPPNAPIEVDPNNWIYIKSAGGSAGGSAGG [r17_49_TrROS]	0.181 ± 0.33	0.0738 ± 0.4	0.00801 ± 0.33
DWLIRIKFTYKGPDGNKHEMKIIVRVPESPEQAKEEVEDIARMIMEEQGYPPENIKKIKVEVIPPGEELTPS [r1_159_TrROS]	3.91 ± 0.14	4.203 ± 0.041	3.46 ± 0.1
SAGGMTSTLTVTLTVSPSTSPEEAAERAAEALEAAHPDRTVVIESITVTPATGKVVATIKVVGDTGASAGGS [r8_26_JUSTAS]	1.39 ± 0.07	1.18 ± 0.029	1.53 ± 0.055
SAGGSAGGNVILVETGPDGRARVLVFDPETGKVTEYEVPADDLDAIEAIAADKVDLVIVRPVGPSAGGSAGG [r6_639_TrMRF]	2.07 ± 0.11	2.23 ± 0.028	1.75 ± 0.059
SAGGSAGGMTVDPENPVVYYPGSDGKAQTYPLSPDSSLKLPDGKVVTVTPVPEGSVSVSVSPVESAGGSAGG [r6_296_JUSTAS]	1.02 ± 0.036	1.249 ± 0.011	0.571 ± 0.03
SAGGKKTYKVRIEIKVTDPNGKKRTIEIELEVPESEEEAEKLAKELAEKLKEKGYKVEIVKIEVEPLSAGGS [r16_525_TrROS_Hall]	4.03 ± 0.12	4.08 ± 0.064	3.98 ± 0.2
PWRPIMITVRANPNLKVDIYPPNGPQEEIPVDSPEDALKKAQKLLPPNYPIMVKVQNEGKPIATFPFWIPPS [r1_276_TrROS]	2.61 ± 0.52	2.41 ± 0.14	2.84 ± 0.36
SAGGSATSIEYESPGVVETVSFTREPDGTLTVTVTVREPNGPVLKTLPTTETLPPDAGVTASVPLPSAGGSA [r15_950_JUSTAS]	0.529 ± 0.18	0.921 ± 0.13	0.0919 ± 0.16
